Source: patent US20230042176

B1: Ube3a, endogenous, in primary mouse cortical neurons (WT against Ube3a m-/p+ mice) (protein)
chain: MATACKRSPGESQSEDIEASRMKRAAAKHLIERYYHQLTEGCGNEACTNEFCASCPTFLRMDNNAAAIKALELYKINAKLCDPHPSKKGASSAYLENSKGASNNSEIKMNKKEGKDFKDVIYLTEEKVYEIYEFCRESEDYSPLIRVIGRIFSSAEALVLSFRKVKQHTKEELKSLQEKDEDKDEDEKEKAACSAAAMEEDSEASSSRMGDSSQGDNNVQKLGPDDVTVDIDAIRRVYSSLLANEKLETAFLNALVYLSPNVECDLTYHNVYTRDPNYLNLFIIVMENSNLHSPEYLEMALPLFCKAMCKLPLEAQGKLIRLWSKYSADQIRRMMETFQQLITYKVISNEFNSRNLVNDDDAIVAASKCLKMVYYANVVGGDVDTNHNEEDDEEPIPESSELTLQELLGDERRNKKGPRVDPLETELGVKTLDCRKPLISFEEFINEPLNDVLEMDKDYTFFKVETENKFSFMTCPFILNAVTKNLGLYYDNRIRMYSERRITVLYSLVQGQQLNPYLRLKVRRDHIIDDALVRLEMIAMENPADLKKQLYVEFEGEQGVDEGGVSKEFFQLVVEEIFNPDIGMFTYDEATKLFWFNPSSFETEGQFTLIGIVLGLAIYNNCILDVHFPMVVYRKLMGKKGTFRDLGDSHPVLYQSLKDLLEYEGSVEDDMMITFQISQTDLFGNPMMYDLKENGDKIPITNENRKEFVNLYSDYILNKSVEKQFKAFRRGFHMVTNESPLKYLFRPEEIELLICGSRNLDFQALEETTEYDGGYTRESVVIREFWEIVHSFTDEQKRLFLQFTTGTDRAPVGGLGKLKMIIAKNGPDTERLPTSHTCFNVLLLPEYSSKEKLKERLLKAITYAKGFGML
B2: UBE3A, recombinant, as used in the in vitro ubiquitination assay (ubiquitination kit K-230, Boston Biochem) (protein)
chain: MEKLHQCYWKSGEPQSDDIEASRMKRAAAKHLIERYYHQLTEGCGNEACTNEFCASCPTFLRMDNNAAAIKALELYKINAKLCDPHPSKKGASSAYLENSKGAPNNSCSEIKMNKKGARIDFKDVTYLTEEKVYEILELCREREDYSPLIRVIGRVFSSAEALVQSFRKVKQHTKEELKSLQAKDEDKDEDEKEKAACSAAAMEEDSEASSSRIGDSSQGDNNLQKLGPDDVSVDIDAIRRVYTRLLSNEKIETAFLNALVYLSPNVECDLTYHNVYSRDPNYLNLFIIVMENRNLHSPEYLEMALPLFCKAMSKLPLAAQGKLIRLWSKYNADQIRRMMETFQQLITYKVISNEFNSRNLVNDDDAIVAASKCLKMVYYANVVGGEVDTNHNEEDDEEPIPESSELTLQELLGEERRNKKGPRVDPLETELGVKTLDCRKPLIPFEEFINEPLNEVLEMDKDYTFFKVETENKFSFMTCPFILNAVTKNLGLYYDNRIRMYSERRITVLYSLVQGQQLNPYLRLKVRRDHIIDDALVRLEMIAMENPADLKKQLYVEFEGEQGVDEGGVSKEFFQLVVEEIFNPDIGMFTYDESTKLFWFNPSSFETEGQFTLIGIVLGLAIYNNCILDVHFPMVVYRKLMGKKGTFRDLGDSHPVLYQSLKDLLEYEGNVEDDMMITFQISQTDLFGNPMMYDLKENGDKIPITNENRKEFVNLYSDYILNKSVEKQFKAFRRGFHMVTNESPLKYLFRPEEIELLICGSRNLDFQALEETTEYDGGYTRDSVLIREFWEIVHSFTDEQKRLFLQFTTGTDRAPVGGLGKLKMIIAKNGPDTERLPTSHTCFNVLLLPEYSSKEKLKERLLKAITYAKGFGML

Columns and labels:
[1] = target: BK, endogenous, in primary mouse cortical neurons, Q08460
[2] = target: Flag-tagged BK (Flag-BK), overexpressed in HEK293 cells

BK, endogenous, in primary mouse cortical neurons, Q08460, sequence (Q08460 whole entry): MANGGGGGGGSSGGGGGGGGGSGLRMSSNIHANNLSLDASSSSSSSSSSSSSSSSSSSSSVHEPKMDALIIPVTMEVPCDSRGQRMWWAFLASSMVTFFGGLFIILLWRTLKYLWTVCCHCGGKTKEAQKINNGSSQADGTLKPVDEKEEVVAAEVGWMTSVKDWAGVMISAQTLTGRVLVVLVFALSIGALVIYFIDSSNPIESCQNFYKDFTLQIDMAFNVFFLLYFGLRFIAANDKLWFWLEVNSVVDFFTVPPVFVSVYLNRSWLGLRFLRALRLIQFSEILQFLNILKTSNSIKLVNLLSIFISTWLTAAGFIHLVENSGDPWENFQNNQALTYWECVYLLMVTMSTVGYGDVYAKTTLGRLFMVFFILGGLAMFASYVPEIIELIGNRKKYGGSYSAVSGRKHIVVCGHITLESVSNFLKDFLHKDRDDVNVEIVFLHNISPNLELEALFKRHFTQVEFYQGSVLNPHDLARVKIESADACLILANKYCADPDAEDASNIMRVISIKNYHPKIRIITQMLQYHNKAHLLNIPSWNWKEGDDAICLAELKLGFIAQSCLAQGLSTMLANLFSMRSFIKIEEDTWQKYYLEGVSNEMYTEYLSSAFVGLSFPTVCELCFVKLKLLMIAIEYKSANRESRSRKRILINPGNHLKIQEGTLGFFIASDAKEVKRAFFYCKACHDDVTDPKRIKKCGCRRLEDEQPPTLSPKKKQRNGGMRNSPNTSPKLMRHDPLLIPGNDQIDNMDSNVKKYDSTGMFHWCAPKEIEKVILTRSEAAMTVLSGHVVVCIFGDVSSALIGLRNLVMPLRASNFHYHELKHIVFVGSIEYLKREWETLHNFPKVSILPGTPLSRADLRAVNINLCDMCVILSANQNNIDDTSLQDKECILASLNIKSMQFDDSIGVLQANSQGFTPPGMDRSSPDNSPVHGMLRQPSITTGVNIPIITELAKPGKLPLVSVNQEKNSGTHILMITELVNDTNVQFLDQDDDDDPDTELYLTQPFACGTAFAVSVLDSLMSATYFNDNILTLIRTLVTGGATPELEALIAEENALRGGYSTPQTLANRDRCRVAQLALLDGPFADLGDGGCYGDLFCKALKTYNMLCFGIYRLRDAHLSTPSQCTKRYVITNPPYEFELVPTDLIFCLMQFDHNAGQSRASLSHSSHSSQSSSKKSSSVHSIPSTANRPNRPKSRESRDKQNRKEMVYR

Protein	endogenous BK ubiquitination (BK IP, ubiquitin antibody blot, primary mouse cortical neurons) [1]	in vitro ubiquitination assay (E1 Ube1, E2 UbcH5c, HA-Ub) [2]
B1	BK ubiquitination by UBE3A was further confirmed ... by assessing endogenous BK ubiquitination using mouse cortical neurons derived from either WT or Ube3a^m-/p+ mice (FIGS. 11D-11E)	–
B2	–	BK ubiquitination by UBE3A was further confirmed by an in vitro ubiquitination assay using recombinant proteins (FIG. 11C)
